Reference: patent US20230116446A1 (QILU PUGET SOUND BIOTHERAPEUTICS, published 2023)
Values belong to the binder of their own block, whether it stands above or below them.

Assays:
[1] = target: T1, His6 tagged soluble monomeric extracellular domain (ECD) of hSIRPα v2 (human); test: SPR (Biacore T200), antibody captured by anti-human Fc on CM5 chip, monomeric antigen as analyte, 1:1 model
T1 construct: extracellular domain; Made by transient transfection in Expi293 cells; used as monomeric analyte in Biacore; also called huSIRPαv2; huSIRPα-v2
Method: (§1) The experiment is described in Example 8. Antibodies were captured to the CM5 chip surface on which goat anti-human polyclonal antibody (Fc specific) was immobilized. Monomeric huSIRPα-v1 and huSIRPα-v2 were used as analytes and were injected for a 2-minute association period followed by a 5-minute dissociation period. Each concentration was run in duplicates. For human SIRPα v1 the incremental concentrations used are 3.13, 6.25, 12.5, 25, 50, 100, […]; For human SIRPα v2 the incremental concentrations used are 0.78, 1.56, 3.13, 6.25, 12.5, or 25 nM. At the end of each analyte injection, the chip was either regenerated with 10 mM glycine-HC1, pH 1.5 (Panels A-D) for multi-cycle kinetics or not regenerated (Panels E-H) for single-cycle kinetics. Data were evaluated using the Biacore T200 Evaluation Software, version 3.2. Data was double referenced then fit with a 1:1 binding model. Panels A and E indicate the binding of anti-hSIRPα×anti-hCLDN18.2 bispecific antibody to hSIRPα v1, panels B and F indicate the binding of anti-hSIRPα #24 IgG antibody to hSIRPα v1, panels C and G indicate the binding of anti-hSIRPα×anti-hCLDN18.2 bispecific antibody to human SIRPα v2, panels D and H indicate the binding of anti-hSIRPα #24 IgG antibody to human SIRPα v2. The x-axis represents the time (seconds), the y-axis represents the RU (Response Units).
(§2) The His6 tagged soluble monomeric extracellular domain (ECD) of hSIRPα v1 and v2 were made by transient transfection in Expi293 cells. Kinetic analysis was performed using surface plasmon resonance (T200, Cytiva) to compare the binding of the anti-hSIRPα×anti-hCLDN18.2 bispecific antibody (SEQ ID NOs:70 and 74) and the parental anti-hSIRPα #24 IgG antibody (SEQ ID NOs:68 and 74) to antigens hSIRPα v1 and hSIRPα v2 (FIG. 15). Either antibody was captured to the CM5 chip surface (Cytiva) by the immobilized goat-anti-human Fc polyclonal antibody, monomeric antigen hSIRPα v1 or v2 was sequentially injected at 6 different concentrations: huSIRPα v1 at 3.13, 6.25, 12.5, 25, 50, 100 nM while hSIPRα v2 at […] with regeneration by 10 mM Glycine-HCl pH1.5 (FIG. 15, panels A-D) for multi-cycle kinetics or without regeneration (FIG. 15, panels E-H) for single-cycle kinetics.

[2] = target: T2, His6 tagged soluble monomeric extracellular domain (ECD) of hSIRPα v1 (human, UniProt P78324 31-373); test: as above
T2 construct: extracellular domain; Made by transient transfection in Expi293 cells; used as monomeric analyte in Biacore; also called huSIRPαv1; huSIRPα-v1; not shown: His6 tag
T2 sequence (P78324 31-373): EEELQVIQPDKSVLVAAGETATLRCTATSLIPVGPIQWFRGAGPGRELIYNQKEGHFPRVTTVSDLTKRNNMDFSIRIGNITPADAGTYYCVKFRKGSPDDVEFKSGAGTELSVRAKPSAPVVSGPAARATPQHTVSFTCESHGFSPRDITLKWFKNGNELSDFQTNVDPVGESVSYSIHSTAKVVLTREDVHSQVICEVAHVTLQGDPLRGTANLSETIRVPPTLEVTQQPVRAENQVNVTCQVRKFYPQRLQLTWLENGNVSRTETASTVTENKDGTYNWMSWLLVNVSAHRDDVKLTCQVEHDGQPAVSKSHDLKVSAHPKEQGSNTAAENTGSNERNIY
Method: as §1, §2

[3] = target: human SIRPα on monocyte-derived macrophages (human, UniProt P78324 31-504); test: cell-based or functional assay
Chain of human SIRPα on monocyte-derived macrophages (P78324 31-504): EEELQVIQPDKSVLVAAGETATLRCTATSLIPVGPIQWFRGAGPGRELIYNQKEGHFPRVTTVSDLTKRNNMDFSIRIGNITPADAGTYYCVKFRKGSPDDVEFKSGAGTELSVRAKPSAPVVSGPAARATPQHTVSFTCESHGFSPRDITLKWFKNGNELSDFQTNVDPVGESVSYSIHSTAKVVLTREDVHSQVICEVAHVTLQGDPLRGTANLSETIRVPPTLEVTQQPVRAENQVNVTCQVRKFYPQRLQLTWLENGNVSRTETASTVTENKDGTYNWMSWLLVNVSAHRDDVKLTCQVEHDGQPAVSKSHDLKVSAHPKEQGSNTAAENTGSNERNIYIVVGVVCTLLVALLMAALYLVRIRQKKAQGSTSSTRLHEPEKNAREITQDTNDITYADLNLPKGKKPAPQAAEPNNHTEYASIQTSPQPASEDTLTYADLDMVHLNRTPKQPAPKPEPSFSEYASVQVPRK

[4] = target: T3, human Claudin 18 splice variant 2 (hCLDN18.2) (human, UniProt P56856-2 1-261); test: cell-based or functional assay
T3 sequence (looked up): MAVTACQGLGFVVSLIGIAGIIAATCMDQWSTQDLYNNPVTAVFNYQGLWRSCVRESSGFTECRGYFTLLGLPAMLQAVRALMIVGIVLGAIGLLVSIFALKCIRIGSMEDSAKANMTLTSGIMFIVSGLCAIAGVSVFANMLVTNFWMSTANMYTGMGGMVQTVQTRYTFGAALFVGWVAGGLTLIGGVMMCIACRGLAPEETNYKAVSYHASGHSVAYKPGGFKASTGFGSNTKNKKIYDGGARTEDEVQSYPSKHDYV

[5] = target: T3, human Claudin 18 splice variant 2 …; test: flow cytometry on Expi293 cells stably expressing hCLDN18.2, APC anti-human IgG detection, gMFI
Method: Cells stably expressing hCLDN18.2 were spun down at 1500 rpm at room temperature for 5 minutes and resuspended in 1×PBS/1% BSA (washing buffer), antibodies at a 1:3 series dilution ranging from 100 nM to 24 pM were added, cells were incubated at RT with shaking for 1 hour. […] Three additional washes were performed to get rid of unbound antibodies, treated samples were run on an LSRII flow cytometer (BD Biosciences) and signal intensity was determined using the geometric MFI of APC using Flow Jo software (BD Biosciences). Curve fitting and EC₅₀ values were obtained using GraphPad Prism 6 software.

Kd [1]: 0.908 nM
koff [1]: 0.00109 s⁻¹
kon [1]: 1.21e+06 M⁻¹ s⁻¹
Kd [2]: 22.3 nM
koff [2]: 0.0077 s⁻¹
kon [2]: 346000 M⁻¹ s⁻¹
B1: parental anti-hSIRPα #24 IgG antibody (antibody, V domains shown)
VH: EVQLVESGGGLVKPGGSLRLSCAASGFTFSSYVMSWVRQTPGKGLEWVATISSGGTYTYYPDSVKGRFTLSRDNAKNSLYLQMNSLRAEDTAVYYCASQLTGSEFDYWGQGTTVTVSS
VL: DIVLTQSPASLAVSLGERATISCRASESVDLYGTSFMHWYQQKPGQPPKLLIYRASNLESGVPDRFSGSGSRTDFTLTINPLQAEDVATYYCHQSSDELPWTFGGGTKVEIKR
notes: Bivalent parental IgG; also called anti-SIRPα mAb; anti-hSIRPα clone #24 IgG (WT)

Kd [1]: 0.88 nM
koff [1]: 0.00104 s⁻¹
kon [1]: 1.18e+06 M⁻¹ s⁻¹
Kd [2]: 23.2 nM
koff [2]: 0.00732 s⁻¹
kon [2]: 329000 M⁻¹ s⁻¹
EC50 [5]: 16.9 nM
B2: anti-hSIRPα×anti-hCLDN18.2 bispecific antibody (bispecific antibody, human IgG1, kappa)
heavy 1: EVQLVESGGGLVKPGGSLRLSCAASGFTFSSYVMSWVRQTPGKGLEWVATISSGGTYTYYPDSVKGRFTLSRDNAKNSLYLQMNSLRAEDTAVYYCASQLTGSEFDYWGQGTTVTVSSASTKGPSVFPLAPSSKSTSGGTAALGCLVKDYFPEPVTVSWNSGALTSGVHTFPAVLQSSGLYSLSSVVTVPSSSLGTQTYICNVNHKPSNTKVDKKVEPKSCDKTHTCPPCPAPELLGGPSVFLFPPKPKDTLMISRTPEVTCVVVDVSHEDPEVKFNWYVDGVEVHNAKTKPREEQYNSTYRVVSVLTVLHQDWLNGKEYKCKVSNKALPAPIEKTISKAKGQPREPQVYTLPPCREEMTKNQVKLTCLVKGFYPSDIAVEWESNGQPENPYKTTPPVLDKDGSFFLYSKLTVDKSRWQQGNVFSCSVMHEALHNHYTQKSLSLSPGK
light 1: DIVLTQSPASLAVSLGERATISCRASESVDLYGTSFMHWYQQKPGQPPKLLIYRASNLESGVPDRFSGSGSRTDFTLTINPLQAEDVATYYCHQSSDELPWTFGGGTKVEIKRTVAAPSVFIFPPSDEQLKSGTASVVCLLNNFYPREAKVQWKVDNALQSGNSQESVTEQDSKDSTYSLSSTLTLSKADYEKHKVYACEVTHQGLSSPVTKSFNRGEC
heavy 2: QVQLVQSGAEVKKPGSSVKVSCKASGYTLTGYWIEWLRQRPGQGLEWMGEILLGSGSIKYNVKFKDRVTITADESTSTAYMELSSLRSEDTAVYYCARKGLRGNSFDYWGQGTLVTVSSASTKGPSVFPLAPSSKSTSGGTAALGCLVDDYFPEPVTVSWNSGALTSGVHTCPACLQSSGLYSLSSVVTVPSSSLGTQTYICNVNHKPSNTKVDKKVEPKSGDKTHTCPPCPAPELLGGPSVFLFPPKPKDTLMISRTPEVTCVVVDVSHEDPEVKFNWYVDGVEVHNAKTKPREEQYNSTYRVVSVLTVLHQDWLNGKEYKCKVSNKALPAPIEKTISKAKGQPREPQVCTLPPSREEMTKNQVDLTCLVDGFYPSDIAVEWESNGQPENDYGTTPPVLDDDGSFFLYSKLTVDKSRWQQGNVFSCSVMHEALHNHYTQKSLSLSPGK
light 2: DIVMTQSPSSLTVSLGEKATISCKSSQSLLNAGNQKSYLTWYQQKPGQPPKRLIYWASTRESGVPDRFSGSGSGTDFTLTISSLQAEDLAVYYCQNDYYYPFTFGQGTKVEIKRTVAAPSVFIFPPSDEQLKSGTAKVVCLLNNFYPREAKVQWKVDNALQSGNSCECVTEQDSKDSTYSLSSTLTLSKADYEKHKVYACEVTHQGLSSPVTKSFNRGES
notes: Four-chain heterodimeric IgG, one Fab arm for each target; made in ExpiCHO cells and purified on protein A; also called anti-hCLDN18.2×hSIRPα bispecific antibody; anti-hSIRPα×hCLDN18.2
EC50, ADCP killing of PaTu 8988s cells by monocyte-derived macrophages [3]: 0.172 nM
EC50, ADCP killing of PaTu 8988s cells by monocyte-derived macrophages [4]: 0.172 nM

EC50 [5]: 4.52 nM
B3: parental anti-hCLDN18.2 59F9E1 IgG1 antibody (antibody, V domains shown)
VH: QVQLVQSGAEVKKPGSSVKVSCKASGYTLTGYWIEWLRQRPGQGLEWMGEILLGSGSIKYNVKFKDRVTITADESTSTAYMELSSLRSEDTAVYYCARKGLRGNSFDYWGQGTLVTVSS
VL: DIVMTQSPSSLTVSLGEKATISCKSSQSLLNSGNQKSYLTWYQQKPGQPPKRLIYWASTRESGVPDRFSGSGSGTDFTLTISSLQAEDLAVYYCQNDYYYPFTFGQGTKVEIKR
notes: Humanized IgG1 with two Fab arms; also called aCLDN18.2; anti-hCLDN18.2 clone 59F9E1 IgG1 (WT)
